Laboratory results: US20100260765A1 (AstraZeneca / MedImmune, published 2010)

Columns and labels:
Assay in all cases: cell-based or functional assay
[1] = molecular target: T1, KDR (human, UniProt P35968 20-1356)
[2] = molecular target: T1, KDR; remark: listed apart in the source
[3] = molecular target: T1, KDR; remark: listed apart in the source
[4] = molecular target: T1, KDR; remark: listed apart in the source
[5] = molecular target: T1, KDR; remark: listed apart in the source

T1 sequence (P35968 20-1356): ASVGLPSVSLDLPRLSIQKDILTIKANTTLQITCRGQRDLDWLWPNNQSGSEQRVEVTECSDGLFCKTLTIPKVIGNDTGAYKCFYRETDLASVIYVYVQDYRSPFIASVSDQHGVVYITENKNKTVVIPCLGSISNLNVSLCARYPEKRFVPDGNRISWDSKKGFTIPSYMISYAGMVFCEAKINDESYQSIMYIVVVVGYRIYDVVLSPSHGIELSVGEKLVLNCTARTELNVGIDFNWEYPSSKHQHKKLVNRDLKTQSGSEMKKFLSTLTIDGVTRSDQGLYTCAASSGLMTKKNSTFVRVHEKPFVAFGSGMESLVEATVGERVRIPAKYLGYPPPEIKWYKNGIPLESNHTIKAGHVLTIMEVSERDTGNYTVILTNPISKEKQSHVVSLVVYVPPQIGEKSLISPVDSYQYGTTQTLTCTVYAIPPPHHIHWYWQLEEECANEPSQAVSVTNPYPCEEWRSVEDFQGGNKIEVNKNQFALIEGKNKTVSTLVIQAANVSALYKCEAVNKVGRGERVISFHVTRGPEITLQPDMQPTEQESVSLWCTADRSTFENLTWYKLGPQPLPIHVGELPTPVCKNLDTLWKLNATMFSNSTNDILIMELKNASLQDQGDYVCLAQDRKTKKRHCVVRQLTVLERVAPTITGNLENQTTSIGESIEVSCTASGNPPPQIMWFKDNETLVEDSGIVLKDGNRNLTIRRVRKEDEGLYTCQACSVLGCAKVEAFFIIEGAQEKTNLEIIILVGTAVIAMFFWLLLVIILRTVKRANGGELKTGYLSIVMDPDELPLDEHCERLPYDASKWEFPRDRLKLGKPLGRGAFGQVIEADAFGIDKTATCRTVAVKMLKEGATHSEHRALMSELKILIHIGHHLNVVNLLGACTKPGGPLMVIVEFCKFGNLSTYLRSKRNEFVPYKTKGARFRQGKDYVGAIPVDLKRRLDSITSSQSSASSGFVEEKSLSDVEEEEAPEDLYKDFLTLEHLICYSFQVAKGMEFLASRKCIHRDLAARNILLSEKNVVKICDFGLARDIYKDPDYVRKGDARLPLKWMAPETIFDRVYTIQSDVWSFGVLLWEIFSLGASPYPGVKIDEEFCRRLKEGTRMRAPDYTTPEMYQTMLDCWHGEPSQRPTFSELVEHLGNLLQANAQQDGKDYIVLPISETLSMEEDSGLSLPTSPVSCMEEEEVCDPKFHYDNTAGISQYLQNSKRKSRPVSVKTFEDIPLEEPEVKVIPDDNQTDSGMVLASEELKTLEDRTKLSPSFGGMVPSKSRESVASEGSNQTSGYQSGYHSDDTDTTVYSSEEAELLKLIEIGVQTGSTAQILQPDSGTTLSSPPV

B1: 24B3 (antibody, V domains shown)
VH: EVQLVESGGGLVKPGGSLRLSCAASGFTFSTYSMNWVRQAPGKGLEWVSFISGRSSYIYYADSVKGRFTISRDNAKNSLYLQMNSLRAEDTAVYYCSKDDWFEELWGQGTLVTVSS
VL: DIQMTQSPSSLSASVGDRVTITCRASQGIRSDLGWYQQKPGKAPKRLIYATSSLQSGVPSRFSGSGSGTEFTLTISSLQPEDFATYYCLQHNRYPWTFGQGTKVEIK
In the case of B1, the “Activity at 133 nM (% Inhibition), 1-hour Pre-incubation at 4° C., Average” value [1] is reported as 80%, the “Activity at 133 nM (% Inhibition), 1-hour Pre-incubation at 4° C., N = 1” value [1] is reported as 80% and the “Activity at 133 nM (% Inhibition), 1-hour Pre-incubation at 4° C., N = 2” value [1] is reported as 80%. For the same binder, the “Activity at 133 nM (% Inhibition), 24-hour Pre-incubation at 37° C., Average” value [2] was 72%, the “Activity at 133 nM (% Inhibition), 24-hour Pre-incubation at 37° C., N = 1” value [2] was 76% and the “Activity at 133 nM (% Inhibition), 24-hour Pre-incubation at 37° C., N = 2” value [2] was 69%. For the same binder, the “% of Max VEGF KDR pTyr Activity (at 133 nM antibody concentration), Average” value (“% of Max VEGF KDR pTyr Activity … Average” below) [3] was 14%, the “% of Max VEGF KDR pTyr Activity (at 133 nM antibody concentration), N = 1” value (from here on “% of Max VEGF KDR pTyr Activity … N = 1”) [3] was 12% and the “% of Max VEGF KDR pTyr Activity (at 133 nM antibody concentration), N = 2” value (“% of Max VEGF KDR pTyr Activity … N = 2” for short) [3] was 15%. The “Activity at 133 nM Antibody Concentration (% Survival Inhibition), Average” value (“Activity … (% Survival Inhibition), Average” for short) [4] was 65%, the “Activity at 133 nM Antibody Concentration (% Survival Inhibition), N = 1” value (from here on “Activity … (% Survival Inhibition), N = 1”) [4] was 65% and the “Activity at 133 nM Antibody Concentration (% Survival Inhibition), N = 2” value (“Activity … (% Survival Inhibition), N = 2” below) [4] was 64%. For the same binder, the “% Inhibition of VEGF165-mediated 6-keto Prostaglandin F1α release at 133 nM Antibody Concentration, Average” value [5] was 68%, the “% Inhibition of VEGF165-mediated 6-keto Prostaglandin F1α release at 133 nM Antibody Concentration, N = 1” value [5] was 66% and the “% Inhibition of VEGF165-mediated 6-keto Prostaglandin F1α release at 133 nM Antibody Concentration, N = 2” value [5] was 70%.

B2: 30H10 (antibody, V domains shown)
VH: EVQLLESGGGLVQPGGSLRLSCAASGFTFSNYAMSWVRQAPGKGLEWVSAISGSGGITYYADSVKGRFTISRDNSKNTLFLQMNSLRAEDTAVYYCAKASGDNWGQGTLVSVSS
VL: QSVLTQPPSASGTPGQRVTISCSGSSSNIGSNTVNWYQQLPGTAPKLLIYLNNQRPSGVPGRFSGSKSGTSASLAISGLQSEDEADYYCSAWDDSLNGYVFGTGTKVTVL
B2 was tested, and the “Activity at 133 nM (% Inhibition), 1-hour Pre-incubation at 4° C., Average” value [1] was 26%, the “Activity at 133 nM (% Inhibition), 1-hour Pre-incubation at 4° C., N = 1” value [1] was 31% and the “Activity at 133 nM (% Inhibition), 1-hour Pre-incubation at 4° C., N = 2” value [1] was 21%. For the same binder, the “Activity at 133 nM (% Inhibition), 24-hour Pre-incubation at 37° C., Average” value [2] was 62%, the “Activity at 133 nM (% Inhibition), 24-hour Pre-incubation at 37° C., N = 1” value [2] was 48% and the “Activity at 133 nM (% Inhibition), 24-hour Pre-incubation at 37° C., N = 2” value [2] was 77%. For the same binder, the “% of Max VEGF KDR pTyr Activity … Average” value [3] was 12%, the “% of Max VEGF KDR pTyr Activity … N = 1” value [3] was 12% and the “% of Max VEGF KDR pTyr Activity … N = 2” value [3] was 13%. The “Activity … (% Survival Inhibition), Average” value [4] was -115%, the “Activity … (% Survival Inhibition), N = 1” value [4] was -84% and the “Activity … (% Survival Inhibition), N = 2” value [4] was -147%. For the same binder, the “% Inhibition of VEGF165-mediated 6-keto Prostaglandin F1α release at 133 nM Antibody Concentration, Average” value [5] was 10% and the “% Inhibition of VEGF165-mediated 6-keto Prostaglandin F1α release at 133 nM Antibody Concentration, N = 1” value [5] was 10%.

B3: 32C11 (antibody, V domains shown)
VH: EVQLLESGGTLVQPGGSLRLSCAASGFTFSNYAMSWVRQAPGKGLEWVSAISGRAGSTYYADSVKGRFTISRDNSKNTLFLQMNSLRAEDTAVYYCAKASGDDWGQGTLVTVSS
VL: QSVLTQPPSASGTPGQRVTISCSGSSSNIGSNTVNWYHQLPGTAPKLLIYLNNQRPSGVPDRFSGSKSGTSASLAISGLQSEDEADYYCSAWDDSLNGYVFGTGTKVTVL
B3 was tested, and the “Activity at 133 nM (% Inhibition), 1-hour Pre-incubation at 4° C., Average” value [1] was 27%, the “Activity at 133 nM (% Inhibition), 1-hour Pre-incubation at 4° C., N = 1” value [1] was 32% and the “Activity at 133 nM (% Inhibition), 1-hour Pre-incubation at 4° C., N = 2” value [1] was 21%. For the same binder, the “Activity at 133 nM (% Inhibition), 24-hour Pre-incubation at 37° C., Average” value [2] was 73%, the “Activity at 133 nM (% Inhibition), 24-hour Pre-incubation at 37° C., N = 1” value [2] was 73% and the “Activity at 133 nM (% Inhibition), 24-hour Pre-incubation at 37° C., N = 2” value [2] was 73%. For the same binder, the “% of Max VEGF KDR pTyr Activity … Average” value [3] was 10%, the “% of Max VEGF KDR pTyr Activity … N = 1” value [3] was 9% and the “% of Max VEGF KDR pTyr Activity … N = 2” value [3] was 11%. The “Activity … (% Survival Inhibition), Average” value [4] was -91%, the “Activity … (% Survival Inhibition), N = 1” value [4] was -95% and the “Activity … (% Survival Inhibition), N = 2” value [4] was -87%. The “% Inhibition of VEGF165-mediated 6-keto Prostaglandin F1α release at 133 nM Antibody Concentration, Average” value [5] was 9%, the “% Inhibition of VEGF165-mediated 6-keto Prostaglandin F1α release at 133 nM Antibody Concentration, N = 1” value [5] was 6% and the “% Inhibition of VEGF165-mediated 6-keto Prostaglandin F1α release at 133 nM Antibody Concentration, N = 2” value [5] was 11%.

B4: 21H6 (antibody, V domains shown)
VH: QVQLVESGGGLVKPGGSLRLSCAASGFTFSDYYMSWIRQAPGKGLEWVSYISNSGITIYYADSVKGRFTISRDNAKNSLYLQMNSLRAGDTAVYYCAREEWYSSRWYRNFDYWGQGTLVTVSS
VL: DIQMTQFSSSLSASVGDRVTITCRASQSISRYLNWYQQKPGKAPKLLIYAASSLQSGVPSRFNGSGSGTDFTLTISSLQPEDFATYYCQQSYSAPLTFGGGTKVEIK
In the case of B4, the “Activity at 133 nM (% Inhibition), 1-hour Pre-incubation at 4° C., Average” value [1] is reported as 74%, the “Activity at 133 nM (% Inhibition), 1-hour Pre-incubation at 4° C., N = 1” value [1] is reported as 74% and the “Activity at 133 nM (% Inhibition), 1-hour Pre-incubation at 4° C., N = 2” value [1] is reported as 75%. The “Activity at 133 nM (% Inhibition), 24-hour Pre-incubation at 37° C., Average” value [2] was 27%, the “Activity at 133 nM (% Inhibition), 24-hour Pre-incubation at 37° C., N = 1” value [2] was 35% and the “Activity at 133 nM (% Inhibition), 24-hour Pre-incubation at 37° C., N = 2” value [2] was 19%. For the same binder, the “% of Max VEGF KDR pTyr Activity … Average” value [3] was 11%, the “% of Max VEGF KDR pTyr Activity … N = 1” value [3] was 10% and the “% of Max VEGF KDR pTyr Activity … N = 2” value [3] was 12%. The “Activity … (% Survival Inhibition), Average” value [4] was 91%, the “Activity … (% Survival Inhibition), N = 1” value [4] was 105% and the “Activity … (% Survival Inhibition), N = 2” value [4] was 77%. The “% Inhibition of VEGF165-mediated 6-keto Prostaglandin F1α release at 133 nM Antibody Concentration, Average” value [5] was 100%, the “% Inhibition of VEGF165-mediated 6-keto Prostaglandin F1α release at 133 nM Antibody Concentration, N = 1” value [5] was 104% and the “% Inhibition of VEGF165-mediated 6-keto Prostaglandin F1α release at 133 nM Antibody Concentration, N = 2” value [5] was 96%.
